# Source: the supplement of paper PMC11316812
# ± gives the standard deviation of the averaged measurements.
# What was measured:
# MCF7 = experiment: percentage of EdU-negative (G0-arrested) nuclei per well, 72 h; higher = more G0 arrest; conditions: reference: sequence is the full UniProt precursor, the tested protein was the secreted form or ectodomain
# hTERT-HMEC = experiment: as above; conditions: reference: sequence is the full UniProt precursor, the tested protein was the secreted form or ectodomain
# [1] = protein concentration 0.0168571 µM
# [2] = protein concentration 0.168571 µM
# [3] = protein concentration 0.0225 µM
# [4] = protein concentration 0.021935 µM
# [5] = protein concentration 0.21935 µM
# [6] = protein concentration 0.00925 µM
# [7] = protein concentration 0.0925 µM
# [8] = protein concentration 0.007835 µM
# [9] = protein concentration 0.07835 µM
# [10] = protein concentration 0.01503 µM
# [11] = protein concentration 0.1503 µM
# [12] = protein concentration 0.0238325 µM
# [13] = protein concentration 0.238325 µM
# 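Further: secreted proteins added to cultured cells, EdU pulse at the end, nuclei found by Hoechst imaging, EdU status from nuclear versus surrounding ring intensity ratio, PBS as neutral control.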
sequence,measurement,setting,value
MLLVLVVLIPVLVSSGGPEGHYEMLGTCRMVCDPYPARGPGAGARTDGGDALSEQSGAPPPSTLVQGPQGKPGRTGKPGPPGPPGDPGPPGPVGPPGEKGEPGKPGPPGLPGAGGSGAISTATYTTVPRVAFYAGLKNPHEGYEVLKFDDVVTNLGNNYDAASGKFTCNIPGTYFFTYHVLMRGGDGTSMWADLCKNGQVRASAIAQDADQNYDYASNSVILHLDAGDEVFIKLDGGKAHGGNSNKYSTFSGFIIYSD,percentage of EdU-negative,MCF7; [1],27 ± 0.61%
same,percentage of EdU-negative,MCF7; [2],28.3 ± 0.59%
same,percentage of EdU-negative,hTERT-HMEC; [1],4.78 ± 0.083%
same,percentage of EdU-negative,hTERT-HMEC; [2],8.79 ± 0.3%
MLLWVILLVLAPVSGQFARTPRPIIFLQPPWTTVFQGERVTLTCKGFRFYSPQKTKWYHRYLGKEILRETPDNILEVQESGEYRCQAQGSPLSSPVHLDFSSASLILQAPLSVFEGDSVVLRCRAKAEVTLNNTIYKNDNVLAFLNKRTDFHIPHACLKDNGAYRCTGYKESCCPVSSNTVKIQVQEPFTRPVLRASSFQPISGNPVTLTCETQLSLERSDVPLRFRFFRDDQTLGLGWSLSPNFQITAMWSKDSGFYWCKAATMPYSVISDSPRSWIQVQIPASHPVLTLSPEKALNFEGTKVTLHCETQEDSLRTLYRFYHEGVPLRHKSVRCERGASISFSLTTENSGNYYCTADNGLGAKPSKAVSLSVTVPVSHPVLNLSSPEDLIFEGAKVTLHCEAQRGSLPILYQFHHEGAALERRSANSAGGVAISFSLTAEHSGNYYCTADNGFGPQRSKAVSLSVTVPVSHPVLTLSSAEALTFEGATVTLHCEVQRGSPQILYQFYHEDMPLWSSSTPSVGRVSFSFSLTEGHSGNYYCTADNGFGPQRSEVVSLFVTVPVSRPILTLRVPRAQAVVGDLLELHCEAPRGSPPILYWFYHEDVTLGSSSAPSGGEASFNLSLTAEHSGNYSCEANNGLVAQHSDTISLSVIVPVSRPILTFRAPRAQAVVGDLLELHCEALRGSSPILYWFYHEDVTLGKISAPSGGGASFNLSLTTEHSGIYSCEADNGLEAQRSEMVTLKVAVPVSRPVLTLRAPGTHAAVGDLLELHCEALRGSPLILYRFFHEDVTLGNRSSPSGGASLNLSLTAEHSGNYSCEADNGLGAQRSETVTLYITGLTANRSGPFATGVAGGLLSIAGLAAGALLLYCWLSRKAGRKPASDPARSPSDSDSQEPTYHNVPAWEELQPVYTNANPRGENVVYSEVRIIQEKKKHAVASDPRHLRNKGSPIIYSEVKVASTPVSGSLFLASSAPHR [Q96RD9],percentage of EdU-negative,MCF7; [3],26 ± 0.75%
same,percentage of EdU-negative,MCF7; protein concentration 0.225 µM,31.1 ± 3.2%
same,percentage of EdU-negative,hTERT-HMEC; [3],4.23 ± 0.27%
same,percentage of EdU-negative,hTERT-HMEC; protein concentration 0.225 µM,5.41 ± 0.94%
MLPAAMKGLGLALLAVLLCSAPAHGLWCQDCTLTTNSSHCTPKQCQPSDTVCASVRITDPSSSRKDHSVNKMCASSCDFVKRHFFSDYLMGFINSGILKVDVDCCEKDLCNGAAGAGHSPWALAGGLLLSLGPALLWAGP,percentage of EdU-negative,MCF7; [3],25.6 ± 3.3%
same,percentage of EdU-negative,MCF7; protein concentration 0.225 µM,26.7 ± 1.4%
same,percentage of EdU-negative,hTERT-HMEC; [3],4.57 ± 0.15%
same,percentage of EdU-negative,hTERT-HMEC; protein concentration 0.225 µM,5.48 ± 0.5%
MLPAATASLLGPLLTACALLPFAQGQTPNYTRPVFLCGGDVKGESGYVASEGFPNLYPPNKECIWTITVPEGQTVSLSFRVFDLELHPACRYDALEVFAGSGTSGQRLGRFCGTFRPAPLVAPGNQVTLRMTTDEGTGGRGFLLWYSGRATSGTEHQFCGGRLEKAQGTLTTPNWPESDYPPGISCSWHIIAPPDQVIALTFEKFDLEPDTYCRYDSVSVFNGAVSDDSRRLGKFCGDAVPGSISSEGNELLVQFVSDLSVTADGFSASYKTLPRGTAKEGQGPGPKRGTEPKVKLPPKSQPPEKTEESPSAPDAPTCPKQCRRTGTLQSNFCASSLVVTATVKSMVREPGEGLAVTVSLIGAYKTGGLDLPSPPTGASLKFYVPCKQCPPMKKGVSYLLMGQVEENRGPVLPPESFVVLHRPNQDQILTNLSKRKCPSQPVRAAASQD,percentage of EdU-negative,MCF7; [4],22.7 ± 2.1%
same,percentage of EdU-negative,MCF7; [5],26.5 ± 0.72%
same,percentage of EdU-negative,hTERT-HMEC; [4],4.8 ± 0.62%
same,percentage of EdU-negative,hTERT-HMEC; [5],6.48 ± 0.73%
MLPAPAAPRWPPLLLLLLLLLPLARGAPARPAAGGQASELVVPTRLPGSAGELALHLSAFGKGFVLRLAPDDSFLAPEFKIERLGGSGRATGGERGLRGCFFSGTVNGEPESLAAVSLCRGLSGSFLLDGEEFTIQPQGAGGSLAQPHRLQRWGPAGARPLPRGPEWEVETGEGQRQERGDHQEDSEEESQEEEAEGASEPPPPLGATSRTKRFVSEARFVETLLVADASMAAFYGADLQNHILTLMSVAARIYKHPSIKNSINLMVVKVLIVEDEKWGPEVSDNGGLTLRNFCNWQRRFNQPSDRHPEHYDTAILLTRQNFCGQEGLCDTLGVADIGTICDPNKSCSVIEDEGLQAAHTLAHELGHVLSMPHDDSKPCTRLFGPMGKHHVMAPLFVHLNQTLPWSPCSAMYLTELLDGGHGDCLLDAPAAALPLPTGLPGRMALYQLDQQCRQIFGPDFRHCPNTSAQDVCAQLWCHTDGAEPLCHTKNGSLPWADGTPCGPGHLCSEGSCLPEEEVERPKPVADGGWAPWGPWGECSRTCGGGVQFSHRECKDPEPQNGGRYCLGRRAKYQSCHTEECPPDGKSFREQQCEKYNAYNYTDMDGNLLQWVPKYAGVSPRDRCKLFCRARGRSEFKVFEAKVIDGTLCGPETLAICVRGQCVKAGCDHVVDSPRKLDKCGVCGGKGNSCRKVSGSLTPTNYGYNDIVTIPAGATNIDVKQRSHPGVQNDGNYLALKTADGQYLLNGNLAISAIEQDILVKGTILKYSGSIATLERLQSFRPLPEPLTVQLLTVPGEVFPPKVKYTFFVPNDVDFSMQSSKERATTNIIQPLLHAQWVLGDWSECSSTCGAGWQRRTVECRDPSGQASATCNKALKPEDAKPCESQLCPL [Q9UP79],percentage of EdU-negative,MCF7; [6],25.7 ± 2%
same,percentage of EdU-negative,MCF7; [7],26.53 ± 0.069%
same,percentage of EdU-negative,hTERT-HMEC; [6],5.77 ± 1.1%
same,percentage of EdU-negative,hTERT-HMEC; [7],6.06 ± 0.51%
MLPARCARLLTPHLLLVLVQLSPARGHRTTGPRFLISDRDPQCNLHCSRTQPKPICASDGRSYESMCEYQRAKCRDPTLGVVHRGRCKDAGQSKCRLERAQALEQAKKPQEAVFVPECGEDGSFTQVQCHTYTGYCWCVTPDGKPISGSSVQNKTPVCSGSVTDKPLSQGNSGRKDDGSKPTPTMETQPVFDGDEITAPTLWIKHLVIKDSKLNNTNIRNSEKVYSCDQERQSALEEAQQNPREGIVIPECAPGGLYKPVQCHQSTGYCWCVLVDTGRPLPGTSTRYVMPSCESDARAKTTEADDPFKDRELPGCPEGKKMEFITSLLDALTTDMVQAINSAAPTGGGRFSEPDPSHTLEERVVHWYFSQLDSNSSNDINKREMKPFKRYVKKKAKPKKCARRFTDYCDLNKDKVISLPELKGCLGVSKEGRLV [Q9H4F8],percentage of EdU-negative,MCF7; [8],26.5 ± 1.4%
same,percentage of EdU-negative,MCF7; [9],31.1 ± 0.71%
same,percentage of EdU-negative,hTERT-HMEC; [8],4.85 ± 0.098%
same,percentage of EdU-negative,hTERT-HMEC; [9],16.6 ± 0.68%
MLPCASCLPGSLLLWALLLLLLGSASPQDSEEPDSYTECTDGYEWDPDSQHCRDVNECLTIPEACKGEMKCINHYGGYLCLPRSAAVINDLHGEGPPPPVPPAQHPNPCPPGYEPDDQDSCVDVDECAQALHDCRPSQDCHNLPGSYQCTCPDGYRKIGPECVDIDECRYRYCQHRCVNLPGSFRCQCEPGFQLGPNNRSCVDVNECDMGAPCEQRCFNSYGTFLCRCHQGYELHRDGFSCSDIDECSYSSYLCQYRCINEPGRFSCHCPQGYQLLATRLCQDIDECESGAHQCSEAQTCVNFHGGYRCVDTNRCVEPYIQVSENRCLCPASNPLCREQPSSIVHRYMTITSERSVPADVFQIQATSVYPGAYNAFQIRAGNSQGDFYIRQINNVSAMLVLARPVTGPREYVLDLEMVTMNSLMSYRASSVLRLTVFVGAYTF,percentage of EdU-negative,MCF7; [10],23.73 ± 0.068%
same,percentage of EdU-negative,MCF7; [11],33 ± 1.2%
same,percentage of EdU-negative,hTERT-HMEC; [10],4.54 ± 0.11%
same,percentage of EdU-negative,hTERT-HMEC; [11],7.23 ± 0.73%
MLPCLVVLLAALLSLRLGSDAHGTELPSPPSVWFEAEFFHHILHWTPIPNQSESTCYEVALLRYGIESWNSISNCSQTLSYDLTAVTLDLYHSNGYRARVRAVDGSRHSNWTVTNTRFSVDEVTLTVGSVNLEIHNGFILGKIQLPRPKMAPANDTYESIFSHFREYEIAIRKVPGNFTFTHKKVKHENFSLLTSGEVGEFCVQVKPSVASRSNKGMWSKEECISLTRQYFTVTNVIIFFAFVLLLSGALAYCLALQLYVRRRKKLPSVLLFKKPSPFIFISQRPSPETQDTIHPLDEEAFLKVSPELKNLDLHGSTDSGFGSTKPSLQTEEPQFLLPDPHPQADRTLGNREPPVLGDSCSSGSSNSTDSGICLQEPSLSPSTGPTWEQQVGSNSRGQDDSGIDLVQNSEGRAGDTQGGSALGHHSPPEPEVPGEEDPAAVAFQGYLRQTRCAEEKATKTGCLEEESPLTDGLGPKFGRCLVDEAGLHPPALAKGYLKQDPLEMTLASSGAPTGQWNQPTEEWSLLALSSCSDLGISDWSFAHDLAPLGCVAAPGGLLGSFNSDLVTLPLISSLQSSE,percentage of EdU-negative,MCF7; [12],27.3 ± 1.9%
same,percentage of EdU-negative,MCF7; [13],25.3 ± 2.5%
same,percentage of EdU-negative,hTERT-HMEC; [12],5.02 ± 0.64%
same,percentage of EdU-negative,hTERT-HMEC; [13],5.96 ± 0.77%
